We go through one molecule from patent US20140235820A1, “METHODS AND COMPOSITIONS FOR MODULATING THE Wnt PATHWAY” (Genentech, Inc., priority 2010, published 2014).

Assay [1] deals with T1, human LRP6 construct E1E4 (amino acids A20-Q1253) (human, UniProt O75581 20-1253, biotinylated for biolayer interferometry).
T1 construct: range 20-1253; Expressed in Tni insect cells; tags not specified for this construct; also called LRP6 E1E4
T1 sequence (looked up): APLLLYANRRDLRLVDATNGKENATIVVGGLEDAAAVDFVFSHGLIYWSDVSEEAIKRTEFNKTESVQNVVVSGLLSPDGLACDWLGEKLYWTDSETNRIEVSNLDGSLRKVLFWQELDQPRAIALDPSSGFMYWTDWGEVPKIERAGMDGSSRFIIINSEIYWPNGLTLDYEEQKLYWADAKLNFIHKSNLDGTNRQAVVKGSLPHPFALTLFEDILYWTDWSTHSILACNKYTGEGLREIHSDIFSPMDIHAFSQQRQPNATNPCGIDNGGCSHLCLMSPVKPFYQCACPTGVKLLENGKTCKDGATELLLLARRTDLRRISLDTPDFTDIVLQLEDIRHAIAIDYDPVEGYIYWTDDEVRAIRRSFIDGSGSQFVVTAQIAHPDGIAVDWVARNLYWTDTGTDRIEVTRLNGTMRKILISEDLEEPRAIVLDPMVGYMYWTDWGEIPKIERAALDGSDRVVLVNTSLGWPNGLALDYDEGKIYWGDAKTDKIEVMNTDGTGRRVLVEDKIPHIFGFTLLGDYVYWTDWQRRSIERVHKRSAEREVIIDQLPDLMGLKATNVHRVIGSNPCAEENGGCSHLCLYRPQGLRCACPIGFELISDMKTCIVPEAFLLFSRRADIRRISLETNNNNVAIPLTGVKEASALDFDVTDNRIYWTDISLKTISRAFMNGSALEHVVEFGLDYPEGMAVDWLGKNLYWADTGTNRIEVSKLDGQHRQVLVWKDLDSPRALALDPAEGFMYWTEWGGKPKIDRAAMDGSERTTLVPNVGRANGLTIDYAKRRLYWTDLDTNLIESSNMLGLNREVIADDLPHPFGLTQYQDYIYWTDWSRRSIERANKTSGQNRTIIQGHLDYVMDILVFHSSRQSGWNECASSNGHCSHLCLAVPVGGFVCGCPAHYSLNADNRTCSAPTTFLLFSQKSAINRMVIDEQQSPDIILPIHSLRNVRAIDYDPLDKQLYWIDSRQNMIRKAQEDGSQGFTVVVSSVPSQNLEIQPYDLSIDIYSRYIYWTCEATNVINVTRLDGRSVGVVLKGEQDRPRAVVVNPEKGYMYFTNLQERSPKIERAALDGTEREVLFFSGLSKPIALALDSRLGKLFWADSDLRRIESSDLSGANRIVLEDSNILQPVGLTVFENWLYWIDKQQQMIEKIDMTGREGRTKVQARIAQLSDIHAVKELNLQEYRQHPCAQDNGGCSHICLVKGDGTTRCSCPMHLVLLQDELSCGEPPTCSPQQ
Description: BLI (FIG. 9B). The protocol:
(§1) Binding kinetics were measured by biolayer interferometry using an Octet Red instrument (ForteBio) as previously described (11). Streptavidin (SA) biosensors were loaded with biotinylated hLRP6 in 50 mMTris, pH 8, 300 mM NaCl, 5% (v/v) glycerol, and 0.05% (w/v) Triton X-100. The loaded biosensors were washed in the same buffer before carrying out association and dissociation measurements for the indicated times. The Kd of each interaction was determined using steady state-analysis through the Octet Red software v6.3. Each reported value represents an average of three or more experiments at different concentrations, with a fitted experimental curve for which the square of the correlation coefficient (R²) is above 0.96.

Assay [2] deals with T2, human LRP6 construct E1E2 (amino acids A20-E631) (human, UniProt O75581 20-631, biotinylated for biolayer interferometry).
T2 construct: range 20-631; also called LRP6 E1E2
T2 sequence (looked up): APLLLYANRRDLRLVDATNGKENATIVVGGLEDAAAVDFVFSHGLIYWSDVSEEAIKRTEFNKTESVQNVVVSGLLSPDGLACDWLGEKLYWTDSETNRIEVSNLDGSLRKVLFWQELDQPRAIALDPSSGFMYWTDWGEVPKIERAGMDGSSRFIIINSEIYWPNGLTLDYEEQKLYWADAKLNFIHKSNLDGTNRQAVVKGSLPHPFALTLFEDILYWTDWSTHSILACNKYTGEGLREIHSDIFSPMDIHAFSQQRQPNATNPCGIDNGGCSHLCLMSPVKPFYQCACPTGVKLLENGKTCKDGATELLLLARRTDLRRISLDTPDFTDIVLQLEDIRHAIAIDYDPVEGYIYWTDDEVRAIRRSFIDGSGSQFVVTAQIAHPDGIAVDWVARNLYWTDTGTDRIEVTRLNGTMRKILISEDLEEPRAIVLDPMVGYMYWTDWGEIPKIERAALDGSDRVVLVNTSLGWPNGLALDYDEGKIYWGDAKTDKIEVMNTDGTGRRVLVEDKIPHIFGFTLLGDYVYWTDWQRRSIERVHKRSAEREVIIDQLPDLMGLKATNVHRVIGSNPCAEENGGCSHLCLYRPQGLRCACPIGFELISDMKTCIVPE
The assay is described as follows: BLI (FIG. 9B). The procedure: as §1

B1: Dkk1 K211E (ligand, human, UniProt O94907 32-266, looked up)
chain: TLNSVLNSNAIKNLPPPLGGAAGHPGSAVSAAPGILYPGGNKYQTIDNYQPYPCAEDEECGTDEYCASPTRGGDAGVQICLACRKRRKRCMRHAMCCPGNYCKNGICVSSDQNHFRGEIEETITESFGNDHSTLDGYSRRTTLSSKMYHTKGQEGSVCLRSSDCASGLCCARHFWSKICEPVLKEGQVCTKHRRKGSHGLEIFQRCYCGEGLSCRIQKDHHQASNSSRLHTCQRH
notes: also called Dkk1 Lys211Glu
B1: the binding result in assay [1] and in assay [2] was “binds” throughout.
